One substance from PMC10726160 can be followed below.

This experiment addresses GW182 (TNRC6A), short isoform (mouse (endogenous in OT-I CD8+ T cells)). Briefly: co-IP; anti-GW182 antibody on Protein G Dynabeads; lysates of naive (d0) and d6 activated OT-I CD8+ T cells, 2 x 10^7 cells per IP; bound and unbound fractions blotted with Ago2 and GW182 antibodies.

As for “Argonaute 2 (Ago2) (from UniProt Q8CJG0 1-860) (natural protein)”, the percent of Ago2 associated with immunoprecipitated GW182 (d6) turned out to be 50%.
